Article PMC8683085, “Serine ADP-ribosylation marks nucleosomes for ALC1-dependent chromatin remodeling” (eLife, 2021)
Positions count from the first letter of the chain named. In names and notes the source's numbering stands.

B1: HPF1: recombinant FLAG-HPF1, amino acids 27–346, PARP1/2-interacting protein (protein)
chain: KFCEADVSSDLRKEVENHYKLSLPEDFYHFWKFCEELDPEKPSDSLSASLGLQLVGPYDILAGKHKTKKKSTGLNFNLHWRFYYDPPEFQTIIIGDNKTQYHMGYFRDSPDEFPVYVGINEAKKNCIIVPNGDNVFAAVKLFLTKKLREITDKKKINLLKNIDEKLTEAARELGYSLEQRTVKMKQRDKKVVTKTFHGAGLVVPVDKNDVGYRELPETDADLKRICKTIVEAASDEERLKAFAPIQEMMTFVQFANDECDYGMGLELGMDLFCYGSHYFHKVAGQLLPLAYNLLKRNLFAEIIEEHLANRSQENIDQLAA
modifications: left off: 6xHis, N-terminal, cleaved | SUMO, N-terminal, cleaved | FLAG, N-terminal, kept
B2: HPF1 mutant (D283A): binding-deficient HPF1 mutant (protein)
chain: B1 chain with D257A
modifications: left off: 6xHis, N-terminal, cleaved | SUMO, N-terminal, cleaved | FLAG, N-terminal, kept

Target: PARP1 (Homo sapiens, UniProt P09874)
Sequence (P09874 whole entry): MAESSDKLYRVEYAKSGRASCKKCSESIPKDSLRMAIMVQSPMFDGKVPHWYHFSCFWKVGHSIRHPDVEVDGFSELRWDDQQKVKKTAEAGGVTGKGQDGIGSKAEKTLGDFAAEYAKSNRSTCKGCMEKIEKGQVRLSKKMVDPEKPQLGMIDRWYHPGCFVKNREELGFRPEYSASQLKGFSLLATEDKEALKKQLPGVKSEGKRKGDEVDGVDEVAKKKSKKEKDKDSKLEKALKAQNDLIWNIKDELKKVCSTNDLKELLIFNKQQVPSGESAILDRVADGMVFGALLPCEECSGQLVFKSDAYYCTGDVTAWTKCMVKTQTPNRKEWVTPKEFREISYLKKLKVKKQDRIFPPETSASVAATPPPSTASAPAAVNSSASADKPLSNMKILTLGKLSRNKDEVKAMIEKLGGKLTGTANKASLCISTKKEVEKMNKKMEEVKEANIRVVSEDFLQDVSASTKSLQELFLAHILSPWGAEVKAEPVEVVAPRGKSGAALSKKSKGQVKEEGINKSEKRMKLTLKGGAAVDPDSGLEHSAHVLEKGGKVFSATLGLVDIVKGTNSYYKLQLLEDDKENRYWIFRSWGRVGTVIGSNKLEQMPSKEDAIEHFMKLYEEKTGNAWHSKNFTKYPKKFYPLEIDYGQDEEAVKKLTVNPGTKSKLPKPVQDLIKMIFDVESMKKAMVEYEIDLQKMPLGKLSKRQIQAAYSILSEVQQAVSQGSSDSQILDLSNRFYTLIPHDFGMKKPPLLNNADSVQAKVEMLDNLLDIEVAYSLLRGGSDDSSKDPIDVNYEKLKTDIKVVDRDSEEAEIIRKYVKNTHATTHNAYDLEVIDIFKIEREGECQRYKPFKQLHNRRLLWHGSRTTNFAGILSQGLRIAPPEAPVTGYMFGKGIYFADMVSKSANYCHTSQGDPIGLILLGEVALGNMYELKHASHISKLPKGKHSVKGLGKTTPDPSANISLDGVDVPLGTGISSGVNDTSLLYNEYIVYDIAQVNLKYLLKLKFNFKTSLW
Assay: PARP1 ADP-ribose chain elongation on mono-ADP-ribosylated peptide (RP-HPLC), with and without HPF1 titration
Format: biochemical
Conditions: 1 μM PARP1, 180 μM H3S10ADPr1 peptide, 2 mM NAD+, 30 °C 25 min, RP-HPLC A280, n = 3
Procedure: To analyze PARP1 and PARP2 ADPr activity on peptide substrates, 2 mM NAD^+ and 1 μM stimulating DNA were combined into the ADPr reaction buffer in the presence of 0.2, 1, or 5 μM PARP1 or PARP2, in a 25 μL reaction (2 μM PARP1/2, 2 μM DNA and 50 μL reaction volume for H2B peptides). All unmodified and mono-ADP-ribosylated substrate peptides were analyzed at a concentration of 180 μM (40 μM for H2B peptides). The reaction was incubated at 30 °C for 25 min, quenched via addition of 95 μL (70 μL in case of H2B peptide reactions) of Solvent A. It was then centrifuged at 20,000 RCF for 5 min and 100 μL of the supernatant was injected into an analytical C18 column for product analysis via RP-HPLC. An elution gradient of 0–35% Solvent B over 20 min was employed to optimize separation of the poly-ADP-ribosylated peptide products. Percent substrate turnover was calculated by integrating the peaks for the starting material and each product on the RP-HPLC A280 trace, normalizing them depending on their number of ADP-ribose moieties, and calculating ratio of total product to total peptide amounts for each reaction. All reactions were performed in triplicate and error bars represent standard deviations. Individual peaks corresponding to products with unique ADP-ribose chain lengths were collected and analyzed by ESI-MS. […]

Molecule	IC50 (read-out: HPF1 concentration giving 50% inhibition of PARP1-catalyzed ADP-ribose polymerization) [µM]	HPF1 concentration giving 50% inhibition of PARP1-catalyzed ADP-ribose polymerization
B1	~14	
B2		unable to appreciably inhibit
